From article PMC11478330, “Sandwich-Type Electrochemical Aptasensor with Supramolecular Architecture for Prostate-Specific Antigen”

Biological target: prostate-specific antigen (PSA) (UniProt P07288 25-261)
Assay: electrochemical impedance spectroscopy; Apt-ADA on CD-AuNFs/rGO/SPCE; charge transfer resistance rises with PSA; PBS (detection limit measurement); binding buffer details, pH and temperature not given in the material
Details: protein: commercial; hairpin

prostate-specific antigen (PSA), sequence (P07288 25-261): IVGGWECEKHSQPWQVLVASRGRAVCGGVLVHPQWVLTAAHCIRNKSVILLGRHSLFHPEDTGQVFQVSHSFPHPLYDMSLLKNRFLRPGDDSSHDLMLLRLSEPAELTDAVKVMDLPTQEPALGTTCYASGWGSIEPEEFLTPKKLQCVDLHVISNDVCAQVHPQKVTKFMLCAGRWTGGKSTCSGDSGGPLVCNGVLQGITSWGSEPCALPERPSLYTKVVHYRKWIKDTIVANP

Binder: TTTTTAATTAAAGCTCGCCATCAAATAGCTTT (structured_DNA, 5' amino-C6 coupled to 1-adamantanecarboxylic acid) [anti-PSA aptamer-adamantane conjugate (Apt-ADA)]
- binding result: binds
